This is an account of results in paper doi:10.1101/2021.05.25.445547.

Where “and” joins values, the source holds several entries; their conditions need not be identical. Equal entries are not always repeated.

By EC50 is commonly meant the concentration giving half of the maximal effect. A high value points to a less potent agent.

The target in test [1] is optimized bait-PAR-Grb2 with inserted flexible linker sequences, GFP-fused (UniProt P62993). The test can be described thus: subcellular micropatterning.
For test [2] the target is unchanged. The test can be described thus: TIR-FRAP on micropatterned bait.
For test [3], the target named is optimized bait-PAR-Grb2 with inserted flexible linker sequences, RFP-fused (UniProt P62993). The test can be described thus: subcellular micropatterning.
Test [4] concerns the target T1, optimized bait-PAR-Grb2 with inserted flexible linker sequences, RFP-fused, P62993. The test can be described thus: subcellular micropatterning. Conditions: remark: other sources report otherwise.
Test [5] deals with T1, optimized bait-PAR-Grb2 with inserted …. As to the kind of experiment: TIR-FRAP on micropatterned bait. Conditions: remark: other sources report otherwise.

Turning to “SHC-transforming protein 1 (Shc1), RFP-fused (from UniProt P29353 1-583) (natural protein)”, in test [1], the bait-normalized fluorescence contrast <c (prey/bait)>, after EGF was 0.45 and the bait-normalized fluorescence contrast <c (prey/bait)>, unstimulated cells worked out at 0.14. In test [2], this molecule registered a halftime of dissociation (FRAP) of 10 s and a k slow (exchange rate, bi-exponential FRAP fit) of 0.103 s⁻¹.
As to “cell-permeable cyclic peptide cyclo(YpVNFΦrpPRR)”, in test [3], the EC50 was 68 µM and 63 µM; the dissociation half-life of Gab1 from Grb2 at 100 μM peptide was 42 s; the dissociation half-life of SOS1 from Grb2 at 100 μM peptide turned out to be 36 s; the maximum prey dissociation (Gab1 and SOS1 from Grb2) at 100 μM peptide is 70 to 75%.

B1: son of sevenless protein 1 (SOS1), GFP-fused, Q07889 1-1333 (natural protein)
chain: MQAQQLPYEFFSEENAPKWRGLLVPALKKVQGQVHPTLESNDDALQYVEELILQLLNMLCQAQPRSASDVEERVQKSFPHPIDKWAIADAQSAIEKRKRRNPLSLPVEKIHPLLKEVLGYKIDHQVSVYIVAVLEYISADILKLVGNYVRNIRHYEITKQDIKVAMCADKVLMDMFHQDVEDINILSLTDEEPSTSGEQTYYDLVKAFMAEIRQYIRELNLIIKVFREPFVSNSKLFSANDVENIFSRIVDIHELSVKLLGHIEDTVEMTDEGSPHPLVGSCFEDLAEELAFDPYESYARDILRPGFHDRFLSQLSKPGAALYLQSIGEGFKEAVQYVLPRLLLAPVYHCLHYFELLKQLEEKSEDQEDKECLKQAITALLNVQSGMEKICSKSLAKRRLSESACRFYSQQMKGKQLAIKKMNEIQKNIDGWEGKDIGQCCNEFIMEGTLTRVGAKHERHIFLFDGLMICCKSNHGQPRLPGASNAEYRLKEKFFMRKVQINDKDDTNEYKHAFEIILKDENSVIFSAKSAEEKNNWMAALISLQYRSTLERMLDVTMLQEEKEEQMRLPSADVYRFAEPDSEENIIFEENMQPKAGIPIIKAGTVIKLIERLTYHMYADPNFVRTFLTTYRSFCKPQELLSLIIERFEIPEPEPTEADRIAIENGDQPLSAELKRFRKEYIQPVQLRVLNVCRHWVEHHFYDFERDAYLLQRMEEFIGTVRGKAMKKWVESITKIIQRKKIARDNGPGHNITFQSSPPTVEWHISRPGHIETFDLLTLHPIEIARQLTLLESDLYRAVQPSELVGSVWTKEDKEINSPNLLKMIRHTTNLTLWFEKCIVETENLEERVAVVSRIIEILQVFQELNNFNGVLEVVSAMNSSPVYRLDHTFEQIPSRQKKILEEAHELSEDHYKKYLAKLRSINPPCVPFFGIYLTNILKTEEGNPEVLKRHGKELINFSKRRKVAEITGEIQQYQNQPYCLRVESDIKRFFENLNPMGNSMEKEFTDYLFNKSLEIEPRNPKPLPRFPKKYSYPLKSPGVRPSNPRPGTMRHPTPLQQEPRKISYSRIPESETESTASAPNSPRTPLTPPPASGASSTTDVCSVFDSDHSSPFHSSNDTVFIQVTLPHGPRSASVSSISLTKGTDEVPVPPPVPPRRRPESAPAESSPSKIMSKHLDSPPAIPPRQPTSKAYSPRYSISDRTSISDPPESPPLLPPREPVRTPDVFSSSPLHLQPPPLGKKSDHGNAFFPNSPSPFTPPPPQTPSPHGTRRHLPSPPLTQEVDLHSIAGPPVPPRQSTSQHIPKLPPKTYKREHTHPSMHRDGPPLLENAHSS
For B1, in test [4], the bait-normalized fluorescence contrast <c (prey/bait)>, after EGF came to 0.56; the bait-normalized fluorescence contrast <c (prey/bait)>, basal conditions was 0.55; the reduction of copatterning with 10 μM actinomycin D worked out at 25%. Besides, in test [5], the halftime of dissociation (FRAP) stood at 13 s and the k slow (exchange rate, bi-exponential FRAP fit) worked out at 0.074 s⁻¹.
